Data as given in article PMC2800223.

Biological target: GST-HuD (UniProt P26378)
Experiment: filter binding

GST-HuD, sequence (P26378 whole entry): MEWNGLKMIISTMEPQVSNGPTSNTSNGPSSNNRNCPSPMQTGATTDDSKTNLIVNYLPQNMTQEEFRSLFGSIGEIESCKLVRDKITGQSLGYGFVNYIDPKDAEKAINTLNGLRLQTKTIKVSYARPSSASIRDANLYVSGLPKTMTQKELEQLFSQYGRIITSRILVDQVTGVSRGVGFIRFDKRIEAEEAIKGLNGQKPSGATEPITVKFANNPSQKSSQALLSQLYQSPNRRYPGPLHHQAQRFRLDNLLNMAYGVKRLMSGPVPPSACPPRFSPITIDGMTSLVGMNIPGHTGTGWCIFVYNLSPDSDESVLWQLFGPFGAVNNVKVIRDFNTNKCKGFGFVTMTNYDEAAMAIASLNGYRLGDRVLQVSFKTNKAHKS

Sequence | Kd [nM]
CCCUCCCUCUCUC [motif 1 oligoribonucleotide] | 27.3
UUUUGUUUUGUUU [motif 2 oligoribonucleotide] | 6.9
